Results from paper PMC2064741 (The Journal of Cell Biology, 2007).
Like-named read-outs stand apart in the source and are kept apart here.

What was measured:
[1] = target: phalloidin-stabilized actin filaments; assay: co-sedimentation
[2] = target: phalloidin-stabilized actin filaments; assay: co-sedimentation; remark: listed apart in the source
[3] = target: T1, Capu-FH1FH2 (Drosophila Capu residues 467-1,058) (Drosophila, UniProt Q24120 467-1058); assay: fluorescence polarisation
T1 sequence: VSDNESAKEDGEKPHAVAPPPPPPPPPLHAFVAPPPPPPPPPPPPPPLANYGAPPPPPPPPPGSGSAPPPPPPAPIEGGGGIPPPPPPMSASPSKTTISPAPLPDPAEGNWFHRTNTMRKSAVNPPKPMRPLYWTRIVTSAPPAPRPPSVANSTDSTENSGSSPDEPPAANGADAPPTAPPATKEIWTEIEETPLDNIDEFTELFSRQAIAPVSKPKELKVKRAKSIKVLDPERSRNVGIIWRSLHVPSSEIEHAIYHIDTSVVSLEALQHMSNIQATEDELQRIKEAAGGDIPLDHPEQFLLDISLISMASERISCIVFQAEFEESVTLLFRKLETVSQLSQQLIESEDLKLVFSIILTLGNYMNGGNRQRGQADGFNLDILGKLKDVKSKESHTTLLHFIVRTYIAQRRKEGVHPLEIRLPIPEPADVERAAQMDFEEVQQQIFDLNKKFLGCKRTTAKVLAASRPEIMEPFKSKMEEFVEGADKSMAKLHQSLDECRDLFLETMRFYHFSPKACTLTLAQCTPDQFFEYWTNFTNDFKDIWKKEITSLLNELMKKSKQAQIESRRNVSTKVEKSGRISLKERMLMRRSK

[4] = target: T2, Capu-FH2 (Drosophila Capu residues 573-1,058) (Drosophila, UniProt Q24120 573-1058); assay: inhibition of formin-driven pyrene-actin assembly
T2 sequence: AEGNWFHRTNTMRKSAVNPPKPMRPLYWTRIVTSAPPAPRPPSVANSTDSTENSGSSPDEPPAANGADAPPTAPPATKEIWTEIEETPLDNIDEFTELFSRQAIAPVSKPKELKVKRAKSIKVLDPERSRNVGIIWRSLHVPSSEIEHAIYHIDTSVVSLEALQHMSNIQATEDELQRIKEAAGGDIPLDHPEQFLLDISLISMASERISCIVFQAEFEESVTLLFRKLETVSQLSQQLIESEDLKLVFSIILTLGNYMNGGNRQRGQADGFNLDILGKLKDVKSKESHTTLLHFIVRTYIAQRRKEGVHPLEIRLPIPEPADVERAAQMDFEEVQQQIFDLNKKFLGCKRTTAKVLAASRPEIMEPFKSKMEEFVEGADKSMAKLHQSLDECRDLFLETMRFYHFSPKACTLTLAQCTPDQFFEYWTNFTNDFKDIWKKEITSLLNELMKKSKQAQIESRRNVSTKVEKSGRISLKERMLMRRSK

[5] = target: T3, Fmn2-FH2 (formin-2 residues 1,124-1,567) ( (printed as m-Fmn2, …, UniProt Q9JL04 1135-1578)); assay: fluorescence polarisation
T3 sequence (Q9JL04 1135-1578): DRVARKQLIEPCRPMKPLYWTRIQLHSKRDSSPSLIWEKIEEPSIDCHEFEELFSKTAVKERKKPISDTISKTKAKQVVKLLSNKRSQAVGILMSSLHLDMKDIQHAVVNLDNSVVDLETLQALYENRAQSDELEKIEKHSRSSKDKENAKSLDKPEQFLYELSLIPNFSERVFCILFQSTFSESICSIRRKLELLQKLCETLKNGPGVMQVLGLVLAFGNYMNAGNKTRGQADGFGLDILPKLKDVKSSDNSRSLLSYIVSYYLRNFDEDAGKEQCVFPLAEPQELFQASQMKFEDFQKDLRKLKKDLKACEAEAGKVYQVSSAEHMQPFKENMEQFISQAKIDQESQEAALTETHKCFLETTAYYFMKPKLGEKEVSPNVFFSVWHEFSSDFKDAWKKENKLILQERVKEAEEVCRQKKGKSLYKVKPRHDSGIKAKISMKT

[6] = target: T3, Fmn2-FH2 (formin-2 residues 1,124-1,567); assay: inhibition of formin-driven pyrene-actin assembly
[7] = target: T1, Capu-FH1FH2 (Drosophila Capu residues …); assay: co-sedimentation
[8] = target: T1, Capu-FH1FH2 (Drosophila Capu residues …); assay: fluorescence polarisation; remark: listed apart in the source
[9] = target: T2, Capu-FH2 (Drosophila Capu residues …); assay: fluorescence polarisation
[10] = target: T1, Capu-FH1FH2 (Drosophila Capu residues …); assay: other fluorescence titration
AUC = target: the molecule itself; assay: AUC

B1: Capu-FH1FH2 (Drosophila Capu residues 467-1,058) (domain or fragment)
chain: T1 sequence
Kd [1]: 7 nM | Kd [2]: 6 nM

B2: KIND (Drosophila Spir residues 1-327), unlabeled (domain or fragment)
chain: MTEHQAEEQADTPPTKVKATPTPTPSGKFKDAKEDAFLSTSPDSANGDAQHKLPADQLAMSSSAHPQQAGQARPLILQAFHRCSSPEQCVTLHDILDSFKAPLSEDQAWALIHQFAGLYHQVAVQAHTCAADYEAALPTGFELHFHRDGSVHFSGPDQLTPKEQLQQEQIPLPPQHDVIVDQPDHSASSSGDSSVINRAFDNSNHHHHHQHHHPPLVVSHRKIISELAEIVYTALDYNLPEDEECQVSQELENLFNFMTADETDDDCIDEGIDEGDKRWDDESEEERNDTKELEHIIETCRNHIKTTLPENHYRAVCRALVTETIEL
Kd [3]: 5 ± 3 nM | Ki [4]: 5 ± 1 nM

B3: AlexaFluor488-labeled Spir-1–KIND (human Spir-1 residues 2-271) (domain or fragment)
chain: AQAAGPAGGGEPRTEAVGGEGPREPGAAGGAAGGSRDALSLEEILRLYNQPINEEQAWAVCYQCCGSLRAAARRRQPRHRVRSAAQIRVWRDGAVTLAPAADDAGEPPPVAGKLGYSQCMETEVIESLGIIIYKALDYGLKENEERELSPPLEQLIDHMANTVEADGSNDEGYEAAEEGLGDEDEKRKISAIRSYRDVMKLCAAHLPTESDAPNHYQAVCRALFAETMELHTFLTKIKSAKENLKKIQEMEKSDESSTDLEELKNADWAR
Kd [5]: 300 ± 60 nM

B4: Spir-1–KIND (human Spir-1 residues 2-271), unlabeled (domain or fragment)
chain: B3 chain
Ki [6]: 190 ± 40 nM

B5: NTSpir (Drosophila Spir residues 1-520) (domain or fragment)
chain: MTEHQAEEQADTPPTKVKATPTPTPSGKFKDAKEDAFLSTSPDSANGDAQHKLPADQLAMSSSAHPQQAGQARPLILQAFHRCSSPEQCVTLHDILDSFKAPLSEDQAWALIHQFAGLYHQVAVQAHTCAADYEAALPTGFELHFHRDGSVHFSGPDQLTPKEQLQQEQIPLPPQHDVIVDQPDHSASSSGDSSVINRAFDNSNHHHHHQHHHPPLVVSHRKIISELAEIVYTALDYNLPEDEECQVSQELENLFNFMTADETDDDCIDEGIDEGDKRWDDESEEERNDTKELEHIIETCRNHIKTTLPENHYRAVCRALVTETIELRVFLQQVLNNEAGAEKLIKASESSATTQQELAKLGFNDWARFWVQVIDELRRGVRLKKSNHERTPIEYELTPYEILMGDIRAKKYQLRKVMVNGDIPPRVKKDAHAMILEFIRSRPPLKKASDRQLGPPRMCEPSPREQLMESIRKGKELKQITPPEAPTLRERVLPSANSTLSRSRQRLIKVDFSKFQDDDL
binding result [7]: binds

B6: AlexaFluor488-labeled KIND (Drosophila Spir residues 1-327) (domain or fragment)
chain: B2 chain
Kd [8]: 1 ± 2 nM | Kd [9]: 9 ± 6 nM

B7: AlexaFluor488-labeled WH2 cluster, KCK-WH2(C459S) (Drosophila Spir residues 366-482) (domain or fragment)
chain: KCKWARFWVQVIDELRRGVRLKKSNHERTPIEYELTPYEILMGDIRAKKYQLRKVMVNGDIPPRVKKDAHAMILEFIRSRPPLKKASDRQLGPPRMSEPSPREQLMESIRKGKELKQITP
modifications: AlexaFluor488-maleimide on the cysteine of the N-terminal Lys-Cys-Lys (~100% labeled)
Kd [10]: 2400 ± 900 nM

B8: AlexaFluor488-labeled Capu-FH1FH2 with C-terminal Lys-Cys-Lys (domain or fragment)
chain: VSDNESAKEDGEKPHAVAPPPPPPPPPLHAFVAPPPPPPPPPPPPPPLANYGAPPPPPPPPPGSGSAPPPPPPAPIEGGGGIPPPPPPMSASPSKTTISPAPLPDPAEGNWFHRTNTMRKSAVNPPKPMRPLYWTRIVTSAPPAPRPPSVANSTDSTENSGSSPDEPPAANGADAPPTAPPATKEIWTEIEETPLDNIDEFTELFSRQAIAPVSKPKELKVKRAKSIKVLDPERSRNVGIIWRSLHVPSSEIEHAIYHIDTSVVSLEALQHMSNIQATEDELQRIKEAAGGDIPLDHPEQFLLDISLISMASERISCIVFQAEFEESVTLLFRKLETVSQLSQQLIESEDLKLVFSIILTLGNYMNGGNRQRGQADGFNLDILGKLKDVKSKESHTTLLHFIVRTYIAQRRKEGVHPLEIRLPIPEPADVERAAQMDFEEVQQQIFDLNKKFLGCKRTTAKVLAASRPEIMEPFKSKMEEFVEGADKSMAKLHQSLDECRDLFLETMRFYHFSPKACTLTLAQCTPDQFFEYWTNFTNDFKDIWKKEITSLLNELMKKSKQAQIESRRNVSTKVEKSGRISLKERMLMRRSKKCK
modifications: AlexaFluor488-maleimide on the cysteine of the C-terminal Lys-Cys-Lys (~100% labeled)
stoichiometry N (AUC): 2
